Test results reported in patent US20230050846A1, “TREATMENT OF HEPATIC AND CARDIOVASCULAR DISORDERS” (LIFESEARCH, priority 2019, published 2023).
One block for each binder: values may come before it. Square brackets hold non-standard residues; d marks the D form. Ends that are not written are not given here. * marks the point of attachment. Biotin = O=C1N[C@H]2[C@H](CS[C@H]2CCCCC(=O)*)N1; Palmitoyl = CCCCCCCCCCCCCCCC(=O)*; AEEA = NCCOCCOCC(=O)O

Assays:
[1] = target: Human F1Fo-ATPase purified from HepG2 cells (human); assay: SPR (BIAcore T200), single-cycle kinetics; peptide immobilised as ligand on streptavidin chip, F1Fo-ATPase as analyte injected at 31.25, 62.5, 125, 250 and 500 nM
[2] = target: Human F1Fo-ATPase purified from HepG2 cells (human); assay: SPR (BIAcore T200), biotinylated peptide immobilised on streptavidin chip, purified F1Fo-ATPase as analyte, single-cycle kinetics
[3] = target: Human F1Fo-ATPase purified from HepG2 cells (human); assay: SPR (BIAcore T200), His-tagged peptide immobilised on NTA chip, purified F1Fo-ATPase as analyte, single-cycle kinetics
[4] = target: Human F1Fo-ATPase purified from HepG2 cells (human); assay: SPR (BIAcore T200), single-cycle kinetics; peptide immobilised as ligand on NTA chip, F1Fo-ATPase as analyte injected at 31.25, 62.5, 125, 250 and 500 nM

- Kd [1]: 3 nM
- koff [1]: 6.85e-05 s⁻¹
- Kd [2]: 4.45 nM
B1: Formula (II)-Biotin: CH3CO-[SEQ ID NO: 1]-K-[palmitoyl]-AEEAc-K-[biotinyl]-NH2 (peptide)
peptide: Ac-RGAGSIREAGGAFGKREQAEEERYFRAQSREK(Palmitoyl)[AEEA]K(Biotin)-NH2
SMILES: CCCCCCCCCCCCCCCC(=O)NCCCC[C@H](NC(=O)[C@H](CCC(=O)O)NC(=O)[C@H](CCCNC(=N)N)NC(=O)[C@H](CO)NC(=O)[C@H](CCC(N)=O)NC(=O)[C@H](C)NC(=O)[C@H](CCCNC(=N)N)NC(=O)[C@H](Cc1ccccc1)NC(=O)[C@H](Cc1ccc(O)cc1)NC(=O)[C@H](CCCNC(=N)N)NC(=O)[C@H](CCC(=O)O)NC(=O)[C@H](CCC(=O)O)NC(=O)[C@H](CCC(=O)O)NC(=O)[C@H](C)NC(=O)[C@H](CCC(N)=O)NC(=O)[C@H](CCC(=O)O)NC(=O)[C@H](CCCNC(=N)N)NC(=O)[C@H](CCCCN)NC(=O)CNC(=O)[C@H](Cc1ccccc1)NC(=O)[C@H](C)NC(=O)CNC(=O)CNC(=O)[C@H](C)NC(=O)[C@H](CCC(=O)O)NC(=O)[C@H](CCCNC(=N)N)NC(=O)[C@@H](NC(=O)[C@H](CO)NC(=O)CNC(=O)[C@H](C)NC(=O)CNC(=O)[C@H](CCCNC(=N)N)NC(C)=O)[C@@H](C)CC)C(=O)NCCOCCOCC(=O)N[C@@H](CCCCNC(=O)CCCC[C@@H]1SC[C@@H]2NC(=O)N[C@@H]21)C(N)=O

- Kd [3]: 19 nM
- koff [4]: 0.000643 s⁻¹
Binder: Ac-RGAGSIREAGGAFGKREQAEEERYFRAQSREHHHHHH [Formula (I)-His-tag: CH3CO-[SEQ ID NO: 1]-HHHHHH]
